The experiment concerns the target hEAAT3-X (Hg2+-crosslinked Cys-mini K269C/W441C hEAAT3g, human excitatory amino acid transporter 3) (human) (UniProt P43005). The experiment in a line: cryo-EM structure; hEAAT3-X at ~5 mg/mL in 20 mM HEPES-Tris pH 7.4, 200 mM NaCl, 0.01% GDN with 10 mM L-Asp, D-Asp, R-2HG or L-Cys; maps refined with C3 symmetry.

For orientation: stoichiometry N means the number of molecules, sites or subunits per partner or assembly.

Substance “hEAAT3-X (Hg2+-crosslinked Cys-mini K269C/W441C hEAAT3g, human excitatory amino acid transporter 3) (from UniProt P43005 1-524)” returned a stoichiometry N of 3.

For the origin of these results see publication PMC12036983.
